Test results from patent publication US20220267464A1 (Hoffmann-La Roche, published 2022).

How the values were obtained:
[1] = target: T1, hu N(A2-B2)A-avi-His (human, biotin on the avi tag where used biotinylated); assay: SPR (ProteOn XPR36), Fab in bacterial supernatant, biotinylated antigen on NLC chip
T1 construct: chimeric soluble antigen; also called hu N(A2-B2)A-avi-His B; human CEA (A2 domain)
T1 chain: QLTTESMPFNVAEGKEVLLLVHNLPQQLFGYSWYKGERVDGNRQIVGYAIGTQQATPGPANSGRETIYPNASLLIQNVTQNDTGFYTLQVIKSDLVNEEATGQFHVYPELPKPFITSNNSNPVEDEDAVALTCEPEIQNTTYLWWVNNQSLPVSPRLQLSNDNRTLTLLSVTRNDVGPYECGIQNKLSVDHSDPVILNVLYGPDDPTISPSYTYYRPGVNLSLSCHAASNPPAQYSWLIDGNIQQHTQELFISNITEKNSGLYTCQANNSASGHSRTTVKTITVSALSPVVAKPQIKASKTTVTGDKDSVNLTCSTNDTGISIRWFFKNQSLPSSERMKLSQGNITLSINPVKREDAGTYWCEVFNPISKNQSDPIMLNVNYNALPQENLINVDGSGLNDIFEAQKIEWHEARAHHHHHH
Description: (§1) For this experiment, about 2000, 1000, and 500 RU of biotinylated N(A2B2)A-avi-His were immobilized on 3 channels using a Streptavidin-coated NLC chip in vertical orientation. As a control for non-specific binding, 2000 RU of biotinylated NA(B2)A-avi-His protein was immobilized on channel 4. For the off-rate analysis of the identified ELISA-positive clones, injection direction was changed to horizontal orientation. Before injection, each Fab-containing bacterial supernatant was filtered and 3-fold diluted with PBS. The association time was 100 s at 100 μl/minute and dissociation times were either 600 or 1200 s. Bacterial supernatant without Fab fragment was used for referencing. Regeneration was performed with 10 mM glycine pH 1.5 for 35 s at 50 μl/min (vertical orientation).
(§2) Dissociation rate constants (koff) were calculated using a simple one-to-one Langmuir binding model in ProteOn Manager v3.1 software by simultaneously fitting the sensorgrams. […] Shortlisted clones were re-evaluated in an additional SPR experiments under the same conditions. […] Bacterial supernatant without Fab fragment was used for referencing.

[2] = target: T1, hu N(A2-B2)A-avi-His; assay: SPR (ProteOn XPR36), purified Fab, biotinylated antigen on NLC chip
Experimental: Affinity (KD) of purified Fab fragments was measured by surface plasmon resonance using a Proteon XPR36 machine using the same setup as described before.
About 2000, 1000, 500, and 250 RU of biotinylated N(A2B2)A-avi-His were immobilized on 4 channels of a Streptavidin-coated NLC chip in vertical orientation. As a control for non-specific binding, 2000 RU of biotinylated NA(B2)A-avi-His protein was immobilized on channel 5. For the determination of the affinity (KD) of the purified clones, injection direction was changed to horizontal orientation. Two-fold dilution series of purified Fab fragments (varying concentration ranges between 100 and 3 nM) were injected simultaneously at 100 μl/min along separate channels 1-5, with association times of 100 s, and dissociation times of 1200 s. Buffer (PBST) was injected along the sixth channel to provide an “in-line” blank for referencing. Regeneration was performed with 10 mM glycine pH 1.5 for 35 s at 50 μl/min (vertical orientation).
Association rate constants (kon) and dissociation rate constants (koff) were calculated using a simple one-to-one Langmuir binding model in ProteOn Manager v3.1 software by simultaneously fitting the association and dissociation sensorgrams. The equilibrium dissociation constant (KD) was calculated as the ratio koff/kon.

[3] = target: T1, hu N(A2-B2)A-avi-His; assay: SPR (Biacore T200), antigen on CM5 chip, Fab as analyte
Description: Data were double-referenced against the unimmobilized flow cell 1 and a zero concentration of the analyte. The sensorgrams of the analytes were fitted to a simple 1:1 Langmuir interaction model.

[4] = target: T2, NA(B2)A-avi-His (human, biotin on the avi tag); assay: SPR (ProteOn), Fab in bacterial supernatant, 2000 RU antigen
T2 construct: chimeric soluble control antigen without the CEACAM5 A2 domain
T2 chain: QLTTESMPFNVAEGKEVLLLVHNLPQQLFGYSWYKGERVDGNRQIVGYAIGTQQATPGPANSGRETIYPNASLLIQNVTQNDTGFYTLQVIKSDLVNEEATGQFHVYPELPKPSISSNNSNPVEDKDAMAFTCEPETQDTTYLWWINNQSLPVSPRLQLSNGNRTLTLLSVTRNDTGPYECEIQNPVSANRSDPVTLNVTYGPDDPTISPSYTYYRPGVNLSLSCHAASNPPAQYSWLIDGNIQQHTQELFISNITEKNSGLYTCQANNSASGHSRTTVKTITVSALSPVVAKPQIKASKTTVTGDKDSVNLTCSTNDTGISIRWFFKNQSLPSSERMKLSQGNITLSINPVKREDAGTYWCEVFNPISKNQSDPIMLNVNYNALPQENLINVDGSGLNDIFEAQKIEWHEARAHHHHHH
Description: as §1, §2

| Binder | koff [1] | Kd [2] | koff [2] | kon [2] | Kd [3] | binding result [4] |
| --- | --- | --- | --- | --- | --- | --- |
| A5H1EL1D Fab (phagemid-derived) (Fab, V domains shown, Flag tag; also called parental humanized clone A5H1EL1D) VH: EVQLLESGGGLVQPGGSLRLSCAASGFTFTDYYMNWVRQAPGKGLEWLGFIGNKANAYTTEYSASVKGRFTISRDKSKNTLYLQMNSLRAEDTATYYCTRDRGLRFYFDYWGQGTTVTVSS VL: EIVLTQSPATLSLSPGERATLSCRASSSVTYIHWYQQKPGQAPRSWIYATSNLASGIPARFSGSGSGTDFTLTISSLEPEDFAVYYCQHWSSKPPTFGQGTKLEIK | 0.00031 s⁻¹ | 2.3 nM | 0.000248 s⁻¹ | 108000 M⁻¹ s⁻¹ | – | – |
| P1AE4143 (Fab, V domains shown, Fab fragment; also called Fab derived from P1AE2182) VH: EVQLLESGGGLVQPGGSLRLSCAASGFTFTDYYMNWVRQAPGKGLEWVGFIGNKANGYTTEYSASVKGRFTISRDKSKNTLYLQMNSLRAEDTAVYYCARDRGLRFYFDYWGQGTTVTVSS VL: EIVLTQSPATLSLSPGERATLSCRASSSVTYIHWYQQKPGQAPRSWIYATSNLASGIPARFSGSGSGTDFTLTISSLEPEDFAVYYCQHWSSKPPTFGQGTKLEIK | – | – | – | – | 2.92 nM | – |
| P001.177 Fab (Fab, V domains shown, Fab from E. coli (supernatant or IMAC-purified); Flag tag; also called CEA (P001.177)) VH: EVQLLESGGGLVQPGGSLRLSCAASGFYFTDYYMNWVRQAPGKGLEWLGFISNKANAYTTEYSASVKGRFTISRDKSKNTLYLQMNSLRAEDTATYYCTRDRGLRFYFDYWGQGTTVTVSS VL: EIVLTQSPATLSLSPGERATLSCRASSSVTYIHWYQQKPGQAPRSWIYATSNLASGIPARFSGSGSGTDFTLTISSLEPEDFAVYYCQHWSSKPPTFGQGTKLEIK | 9.81e-05 s⁻¹ | 0.29 nM | 7.85e-05 s⁻¹ | 267000 M⁻¹ s⁻¹ | – | no binding |
| P1AE4137 (Fab, V domains shown, Fab fragment; also called Fab derived from P1AE2166) VH: EVQLLESGGGLVQPGGSLRLSCAASGFTFTDYYMNWVRQAPGKGLEWLGFIGNKANGYTTEYSASVKGRFTISRDKSKNTLYLQMNSLRAEDTATYYCTRDRGLRFYFDYWGQGTTVTVSS VL: EIVLTQSPATLSLSPGERATLSCRASSSVTYIHWYQQKPGSSPKSWIYATSNLASGIPARFSGSGSGTDFTLTISSLEPEDFAVYYCQHWSSKPPTFGQGTKLEIK | – | – | – | – | 11.3 nM | – |
| P1AE4139 (Fab, V domains shown, Fab fragment; also called Fab derived from P1AE2176) VH: EVQLLESGGGLVQPGGSLRLSCAASGFTFTDYYMNWVRQAPGKGLEWVGFIGNKANGYTTEYSASVKGRFTISRDNSKNTLYLQMNSLRAEDTAVYYCTRDRGLRFYFDYWGQGTTVTVSS VL: EIVLTQSPATLSLSPGERATLSCRASSSVTYIHWYQQKPGSSPKSWIYATSNLASGIPARFSGSGSGTDFTLTISSLEPEDFAVYYCQHWSSKPPTFGQGTKLEIK | – | – | – | – | 7.58 nM | – |
| P005.102 Fab (Fab, V domains shown, Fab from E. coli (supernatant or IMAC-purified); Flag tag; also called CEA (P005.102)) VH: EVQLLESGGGLVQPGGSLRLSCAASGFTFTDYYMNWVRQAPGKGLEWLGFIGNKANAYTTEYSASVKGRFTISRDKSKNTLYLQMNSLRAEDTATYYCTRDRGIRFQFDYWGQGTTVTVSS VL: EIVLTQSPATLSLSPGERATLSCRASSSVTYIHWYQQKPGQAPRSWIYATSNLASGIPARFSGSGSGTDFTLTISSLEPEDFAVYYCQHWSSKSPTFGQGTKLEIK | 4.24e-05 s⁻¹ | 0.29 nM | 3.92e-05 s⁻¹ | 134000 M⁻¹ s⁻¹ | – | no binding |
| P005.097 Fab (Fab, V domains shown, Fab from E. coli (supernatant or IMAC-purified); Flag tag; also called CEA (P005.097)) VH: EVQLLESGGGLVQPGGSLRLSCAASGFTFTDYYMNWVRQAPGKGLEWLGFIGNKANAYTTEYSASVKGRFTISRDKSKNTLYLQMNSLRAEDTATYYCTRDRGLRFSFDYWGQGTTVTVSS VL: EIVLTQSPATLSLSPGERATLSCRASSSVTYIHWYQQKPGQAPRSWIYATSNLASGIPARFSGSGSGTDFTLTISSLEPEDFAVYYCQHWSSQPPTFGQGTKLEIK | 8.87e-05 s⁻¹ | 0.91 nM | 8.54e-05 s⁻¹ | 94000 M⁻¹ s⁻¹ | – | no binding |
| P005.103 Fab (Fab, V domains shown, Fab from E. coli (supernatant or IMAC-purified); Flag tag; also called CEA (P005.103)) VH: EVQLLESGGGLVQPGGSLRLSCAASGFTFTDYYMNWVRQAPGKGLEWLGFIGNKANAYTTEYSASVKGRFTISRDKSKNTLYLQMNSLRAEDTATYYCTRDRGIRFYFDYWGQGTTVTVSS VL: EIVLTQSPATLSLSPGERATLSCRASSSVTYIHWYQQKPGQAPRSWIYATSNLASGIPARFSGSGSGTDFTLTISSLEPEDFAVYYCQHWSSISPTFGQGTKLEIK | 5.37e-05 s⁻¹ | 0.5 nM | 4.99e-05 s⁻¹ | 100000 M⁻¹ s⁻¹ | – | no binding |
| P1AE4141 (Fab, V domains shown, Fab fragment; also called Fab derived from P1AE2179) VH: EVQLLESGGGLVQPGGSLRLSCAASGFTFTDYYMNWVRQAPGKGLEWVGFIGNKANGYTTEYSASVKGRFTISRDKSKNTLYLQMNSLRAEDTAVYYCARDRGLRFYFDYWGQGTTVTVSS VL: QTVLTQSPATLSLSPGERATLSCRASSSVTYIHWYQQKPGSSPKSWIYATSNLASGIPARFSGSGSGTDYTLTISSLEPEDFAVYYCQHWSSKPPTFGQGTKLEIK | – | – | – | – | 1.83 nM | – |
| P002.139 Fab (Fab, V domains shown, Fab from E. coli (supernatant or IMAC-purified); Flag tag; also called CEA (P002.139)) VH: EVQLLESGGGLVQPGGSLRLSCAASGFYFTDYAMNWVRQAPGKGLEWLGVISNKANAYTTEYSASVKGRFTISRDKSKNTLYLQMNSLRAEDTATYYCTRDRGLRFYFDYWGQGTTVTVSS VL: EIVLTQSPATLSLSPGERATLSCHASSSVTYIHWYQQKPGQAPRSWIYATSNLASGIPARFSGSGSGTDFTLTISSLEPEDFAVYYCQHWSSKPPTFGQGTKLEIK | 6.47e-05 s⁻¹ | 0.63 nM | 6.53e-05 s⁻¹ | 105000 M⁻¹ s⁻¹ | – | no binding |
| P1AE4140 (Fab, V domains shown, Fab fragment; also called Fab derived from P1AE2177) VH: EVQLLESGGGLVQPGGSLRLSCAASGFTFTDYYMNWVRQAPGKGLEWVGFIGNKANGYTTEYSASVKGRFTISRDNSKNTLYLQMNSLRAEDTAVYYCTRDRGLRFYFDYWGQGTTVTVSS VL: EIVLTQSPATLSLSPGERATLSCRASSSVTYIHWYQQKPGQAPRSWIYATSNLASGIPARFSGSGSGTDFTLTISSLEPEDFAVYYCQHWSSKPPTFGQGTKLEIK | – | – | – | – | 7.62 nM | – |
| P1AE4142 (Fab, V domains shown, Fab fragment; also called Fab derived from P1AE2181) VH: EVQLLESGGGLVQPGGSLRLSCAASGFTFTDYYMNWVRQAPGKGLEWVGFIGNKANGYTTEYSASVKGRFTISRDKSKNTLYLQMNSLRAEDTAVYYCARDRGLRFYFDYWGQGTTVTVSS VL: EIVLTQSPATLSLSPGERATLSCRASSSVTYIHWYQQKPGSSPKSWIYATSNLASGIPARFSGSGSGTDFTLTISSLEPEDFAVYYCQHWSSKPPTFGQGTKLEIK | – | – | – | – | 2.64 nM | – |
